This note sets out measurements from the nanobody polyreactivity screen of Harvey et al. (2022).

The series in a line: yeast display, Sf9 membrane polyspecificity reagent, FACS + sequencing; frameworks hold sequencing errors. Put shortly: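 After 36–48 hours of galactose induction, yeast (Saccharomyces cerevisiae BJ5465) displaying a synthetic nanobody library were stained at 4 °C for 1 hour with 10% biotinylated, detergent-solubilized Sf9 membrane reagent. Streptavidin microbeads enriched the stained cells before FACS sorting into low and high (top ~1%) gates on anti-HA and streptavidin fluorescence. Each clone's polyreactivity label reflects its gate of origin.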
For “QVQLVESGGGLVQAGGSLRLSCAASGRIFYSYVMGWYRQAPGKERELVAAIRWGGGSTYYADSVKGRFTISPDNPKNTVYLQMNSLKPEDTAVYYCAAAYNWRKYDYWGQGTQVTVSS”, the “polyreactivity (PSR sort gate)” value is given as “high polyreactivity”.

Turning to “QVQLVESGGGLVQAGGSLRLSCAASGRIFYTNAMGWYRQAPGKERELVAAIKWNGGRTYYADSVKGRFTISRDNAKNTVYLQMNSLKPEDTAVYYCAAGAPVDPWYSGLVVLDGMDYWGQGTQVTVSS”, the “polyreactivity (PSR sort gate)” value was “low polyreactivity”.

With “QVQLVESGGGLVQAGGSLRLSCAASGRIFYTNAMGWYRQAPGKERELVAVISWGGDTTYYADSVKGRFTISRDNAKNTVYLQMNSLKPEDTAVYYCNADWGPTYEIYDSWGQGTQVTVSS”, the “polyreactivity (PSR sort gate)” value is reported as “low polyreactivity”.

As for “QVQLVESGGGLVQAGGSLRLSCAASGRIFYTNVMGWYRQAPGKERELVAAISTGGGRTYYADSVKGRFTISRDNAKNTVYLQMNSLKPEDTAVYYCAASGRYAIVWGDQYYGYYYWGQGTQVTVSS”, the “polyreactivity (PSR sort gate)” value is listed as “high polyreactivity”.

For the sequence “QVQLVESGGGLVQAGGSLRLSCAASGRIFYTYAMGWYRQAPGKERELVAAISSRTGSTYYADSVKGRFTISRDNAKNTVYLQMNSLKPEDTAVYYCNAYRLRYGYDYWGQGTQVTVSS”, the “polyreactivity (PSR sort gate)” value is recorded as “high polyreactivity”.

Consider “QVQLVESGGGLVQAGGSLRLSCAASGRIFYTYAMGWYRQAPGKERELVAVISSGGSTNYADSVKGRFTISRDNAKNTVYLQMNSLKPEDTAVYYCAAYGTKWGRGFYITGYGYWGQGTQVTVSS”, for which the “polyreactivity (PSR sort gate)” value is recorded as “low polyreactivity”.

In the case of “QVQLVESGGGLVQAGGSLRLSCAASGRIFYVNAMAWYRQAPGTEREFVAAIRVDGASTYYADSVKGRFTFSRDNAKNTVYLQMNSLKPEDTAVYYCAARTRSYWSTTYYYWGQGTEVTVSS”, the “polyreactivity (PSR sort gate)” value was “high polyreactivity”.

For “QVQLVESGGGLVQAGGSLRLSCAASGRIFYVNAMGWYRQAPGKERELVAAIDVNDGITYYADSVKGRFTISRDNAKNTVYLQMNSLKPEDTAVYYCAAETLYWNDIIWDVEYWGQGTQVTVSS”, the “polyreactivity (PSR sort gate)” value is given as “high polyreactivity”.

For “QVQLVESGGGLVQAGGSLRLSCAASGRIFYVNTMGWYRPAPGKERELVATITWGGDSTYYADSVKGRFTISRDNAKNTVYLQMNSLKPEDTAVYYCAADHHDIRLNTRRNDYRGQGTQVTVSS”, the “polyreactivity (PSR sort gate)” value is “low polyreactivity”.

On to “QVQLVESGGGLVQAGGSLRLSCAASGRIFYVYAMGWYRAPGKERELVASISYIGGSTYYADSVKGRFTISRDNAKNTVYLQMNSLKPEDTAVYYCATDYYGYTVSYLVPSWPDDYWGQGTQVTVSS”, for which the “polyreactivity (PSR sort gate)” value is recorded as “low polyreactivity”.

Take “QVQLVESGGGLVQAGGSLRLSCAASGRIFYVYAMGWYRQAPGKERELVAAISWSGGGTYYADSVKGRFTISRDNAKNTVYLQMNSLKPEDTAVYYCATVSGVPPGSHDYWGQGTQVTVSS”: the “polyreactivity (PSR sort gate)” value is on record as “low polyreactivity”.

Consider “QVQLVESGGGLVQAGGSLRLSCAASGRIFYVYAMGWYRQAPGKERELVAAITISGGSTYYADSVKGRFTISRDNAKNTVYLQMNSLKPEDTAVYYCAAGTQAHAYVVRPIEMDYWGQGTQVTVSS”, for which the “polyreactivity (PSR sort gate)” value is given as “low polyreactivity”.

As for “QVQLVESGGGLVQAGGSLRLSCAASGRIFYVYAMGWYRQAPGKERELVATISWSAGITYYADSVKGRFTISRDNAKNTVYLQMNSMKPEDTAVYYCAKVGRYTYSGQYDYWGQGTQVTVSS”, the “polyreactivity (PSR sort gate)” value is reported as “high polyreactivity”.

Turning to “QVQLVESGGGLVQAGGSLRLSCAASGRIFYVYTMGWYRQARGKERELVAAISWSGGSTHYADSVKGRFTISRDNAKNTVYLQMNSLKTEYTAVYYCNKGVVSRVAFEYWGQGTQVTVSS”, the “polyreactivity (PSR sort gate)” value is reported as “low polyreactivity”.

Regarding “QVQLVESGGGLVQAGGSLRLSCAASGRIFYWNAMGWYRQAPGKERELVAGITGGGNTNYADSVKGRFTISRDNAKNTVYLQMNSLKPEDTAVYYCATRTNRRRSYDYWGQGTQVTVSS”, the “polyreactivity (PSR sort gate)” value is given as “high polyreactivity”.

As for “QVQLVESGGGLVQAGGSLRLSCAASGRIFYWYAMGWYRQAPGKERELVATINQSGSSTYYADSVKGRFTISRDNAKNTVYLQMYSLKPEDTAVYYCNAGGQRPHSVGLVGEMGYWGQGTKVTVSS”, the “polyreactivity (PSR sort gate)” value is recorded as “high polyreactivity”.

In the case of “QVQLVESGGGLVQAGGSLRLSCAASGRIFYYAMGWYRPAPGKERELVAAISRSGGSTYYADSVKGRFTISRDNAKNTVYLQMNSLKPEDTAVYYCAAVIYIYPISKRDYWGQGTQVTVSS”, the “polyreactivity (PSR sort gate)” value was “low polyreactivity”.

As for “QVQLVESGGGLVQAGGSLRLSCAASGRIFYYNAMGGYTQAPGKERELVAAIDWSGGSTYYADSVKGRITISRANAKNTVYLQMNSLKPEDTAVYYCNAPFRYVPPEGSGPYDYWGQGTQVTVSS”, the “polyreactivity (PSR sort gate)” value was “low polyreactivity”.

As for “QVQLVESGGGLVQAGGSLRLSCAASGRIFYYNAMGWYRQAPGKEREFVAAISSGGGSTYYADSVKGRFTISRDNAKNTVYLQMNSLKPEDTAVYYCAADGYYYDYYYYWGDYGYWGQGTQVTVSS”, the “polyreactivity (PSR sort gate)” value is on record as “high polyreactivity”.

Regarding “QVQLVESGGGLVQAGGSLRLSCAASGRIFYYNAMGWYRQAPGKERELVAAITRGGSTYYADSVKGRFTISRDNAKNTVYLQMNCLKPVDTAVYYCAADRPGYSRYTTSVKGQRYYYWGQGTQVTVSS”, the “polyreactivity (PSR sort gate)” value is “high polyreactivity”.

On to “QVQLVESGGGLVQAGGSLRLSCAASGRIFYYNAMGWYRQAPGKERELVAAITSGGSTNYADSVKGRFSISRDNAKNTVYLQMNSLNPEDTAVYYCAADYYYYVAGVHYDYWGQGTQVTVSS”, for which the “polyreactivity (PSR sort gate)” value is given as “low polyreactivity”.

Take “QVQLVESGGGLVQAGGSLRLSCAASGRIFYYNAMGWYRQAPGKERELVAAITYSGTSTYYADSVKGRFTISRDNAKNTVYLQMNSLKPEDSAVYYCAVDSTDQAPPTYDYWGQGTQVTVSS”: the “polyreactivity (PSR sort gate)” value is “low polyreactivity”.

On to “QVQLVESGGGLVQAGGSLRLSCAASGRIFYYNAMGWYRQAPGKERELVAGITSRGRSTYADSVKGRFTISRDNAKNTVYLQMNSLKPEDTAVYYCAAVYRLWGKDYDYWGQGTQVTVSS”, for which the “polyreactivity (PSR sort gate)” value was “high polyreactivity”.

“QVQLVESGGGLVQAGGSLRLSCAASGRIFYYNAMGWYRQAPGKERELVASITGSGGSTYYADSVKGRFTISRDNAKNTVYLQMNSLKPEDTAVYYCANREYLYPYYYVAKYDYWGQGTQVTVSS”: the “polyreactivity (PSR sort gate)” value is given as “low polyreactivity”.

Regarding “QVQLVESGGGLVQAGGSLRLSCAASGRIFYYNDMGWYRQAPGKERELVAAITWTDDGTYYADSVKGRFTISRDNAKNTVFLQMNSLKPEDTAVYYCAAESFYGFEYWGQGTQVTVSS”, the “polyreactivity (PSR sort gate)” value is on record as “low polyreactivity”.

On to “QVQLVESGGGLVQAGGSLRLSCAASGRIFYYNSKGWYRQAPGKERELVAAITSGDNTKYADSVKGRFTISRDKAKNTVYLQMNSLKPEDTAVYYCAARRYAPYQRRMDYWGQGTQVTVSS”, for which the “polyreactivity (PSR sort gate)” value was “high polyreactivity”.

On to “QVQLVESGGGLVQAGGSLRLSCAASGRIFYYNTMGWYRQAPGKERELVAAITTNGGSTYYADSVKGRFTISRDNAKNTVYLQMNSLKPLDTAVYYCKRDRYPYYYAYNYWGQGTQVTVSS”, for which the “polyreactivity (PSR sort gate)” value was “low polyreactivity”.

“QVQLVESGGGLVQAGGSLRLSCAASGRIFYYYAMGWYRQAPGKEREFVAAISQRGGSTSYADSVKGRFTISRDNAKNTVYLQMNSLKPEDTAVYYCAAEYYLRVSGRTYVTSHDYWGQGTQVTVSS”: the “polyreactivity (PSR sort gate)” value is on record as “high polyreactivity”.

Regarding “QVQLVESGGGLVQAGGSLRLSCAASGRIFYYYAMGWYRQAPGKEREFVADISARGGSTYYADSVKGRFTISRDNAKNTVYLQMNSLKPEDTAVYYCAATTGLYTRYGYWGQGTQVTVSS”, the “polyreactivity (PSR sort gate)” value is listed as “high polyreactivity”.

Consider “QVQLVESGGGLVQAGGSLRLSCAASGRIFYYYAMGWYRQAPGKERELLAAITRGGGTYYADSVKGRFTISRDNAKNTVYLQMNSLKPEDTAVYYCAKRGPPESHHPYRYRFDYWGKGTQVTVSS”, for which the “polyreactivity (PSR sort gate)” value is “low polyreactivity”.

On to “QVQLVESGGGLVQAGGSLRLSCAASGRIFYYYAMGWYRQAPGKERELVAAISASGASTYYADSVKGRFTISRDNAKNTVYLQMNSLKPEDTAVYYCAAEEFYYYSADWYDYWGQGTQVTVSS”, for which the “polyreactivity (PSR sort gate)” value is listed as “high polyreactivity”.

“QVQLVESGGGLVQAGGSLRLSCAASGRIFYYYAMGWYRQAPGKERELVAAISWSGVNTYYADSVKGRFTISRDNAKNTVYLQMNSLKPEDTAVYYCAAGFAYKYSKGFWSDYWGQGTQVTVSS”: the “polyreactivity (PSR sort gate)” value is “high polyreactivity”.

Take “QVQLVESGGGLVQAGGSLRLSCAASGRIFYYYAMGWYRQAPGKERELVAAITRGDSTTYADSVKGRFTISRDNAKNTVYLKMNILKPEDTAVYYCNAGRGTFKRYTALQYWGQGTQVTVSS”: the “polyreactivity (PSR sort gate)” value was “low polyreactivity”.

As for “QVQLVESGGGLVQAGGSLRLSCAASGRIFYYYAMGWYRQAPGKERELVAGIDSGDSTNYADSVKGRFTISRDNAKYTVYLQMNSLKPEDTAVYYCAALHFGGYFSYYPYYYWGQGTQVTVSS”, the “polyreactivity (PSR sort gate)” value is recorded as “low polyreactivity”.

As for “QVQLVESGGGLVQAGGSLRLSCAASGRIFYYYAMGWYRQAPGKERELVATISGIGGSTYYADSVKGRFTISRDNAKNTVYLQMNSLKPEDTAVYFCTADYPTSYPLFKSGFDYWGQGTQVTVSS”, the “polyreactivity (PSR sort gate)” value is recorded as “low polyreactivity”.

Take “QVQLVESGGGLVQAGGSLRLSCAASGRIFYYYAMGWYRQAPGKERELVAVISRGGRTKYADSVKGRFTISRDNAKNTVYLQMNSLKPEDTAVYYCAAYPSYYGDSGLRYDYWGQGTQVTVSS”: the “polyreactivity (PSR sort gate)” value is “high polyreactivity”.

For “QVQLVESGGGLVQAGGSLRLSCAASGRIFYYYGMGWYRQAPGKERELVAAISNGGRTYYADSVKGRFTISRDNAKNTVYLQMNSLKPEDTAVDYCAALTRGRGGYDYWGQGTQVTVSS”, the “polyreactivity (PSR sort gate)” value is recorded as “high polyreactivity”.

With “QVQLVESGGGLVQAGGSLRLSCAASGRIFYYYVMGWYRQAPGKERELVAAISSRGGSTYYADSVKGRFTISRDNAKNTVYLQMNSLKPEDTAVYYCAAEYGSISLRYPYYWRYDYWGQGTQVTVSS”, the “polyreactivity (PSR sort gate)” value is reported as “high polyreactivity”.

For “QVQLVESGGGLVQAGGSLRLSCAASGRIGKYAMGWYRQAPGKERELVATISSTGTTNYADSVKGRFTISRDNAKNTVYLQMNSLKPEDTAVYYCAADKPSYRTLSWGGYWGQGTQVTVSS”, the “polyreactivity (PSR sort gate)” value was “high polyreactivity”.

“QVQLVESGGGLVQAGGSLRLSCAASGRIGRYAMGWYRQAPGKERELVAVITSGDSTYYADSVKGRFTISRDNAKNTVYLQMNSLTPEDTAVYYCAADSYRRWGNLFTGNEYDSWGQGTQVTVSS”: the “polyreactivity (PSR sort gate)” value is “low polyreactivity”.
